From patent US7897569B2, “Use of HMGB fragments as anti-inflammatory agents” (The Feinstein Institute for Medical Research, priority 2001, dated 2011)

B1: B box: Human HMGB1 mutant containing only the B box, SEQ ID NO:20 (protein)
chain: FKDPNAPKRLPSAFFLFCSEYRPKIKGEHPGLSIGDVAKKLGEMWNNTAADDKQPYEKKAAKLKEKYEKDIAAY
B2: HMGB1: Recombinant full length human HMGB1, GST fusion system, SEQ ID NO:18; recombinant rat HMGB1 used in some experiments (protein)
chain: MGKGDPKKPTGKMSSYAFFVQTCREEHKKKHPDASVNFSEFSKKCSERWKTMSAKEKGKFEDMAKADKARYEREMKTYIPPKGETKKKFKDPNAPKRLPSAFFLFCSEYRPKIKGEHPGLSIGDVAKKLGEMWNNTAADDKQPYEKKAAKLKEKYEKDIAAYRAKGKPDAAKKGVVKAEKSKKKKEEEEDEEDEEDEEEEEDEEDEEDEEEDDDDE
modifications: GST fusion
notes: recombinant rat HMGB1 used in some experiments
B3: A box: Human HMGB1 mutant containing only the A box, SEQ ID NO:21 (A box SEQ ID NO:22) (protein)
chain: MGKGDPKKPTGKMSSYAFFVQTCREEHKKKHPDASVNFSEFSKKCSERWKTMSAKEKGKFEDMAKADKARYEREMKTYIPPKGET

System: RAW 264.7 cells
Assay: TNF release from RAW 264.7 cells (L929 cytotoxicity bioassay)
Format: cell-based, murine
Details: for TNF release: 1 μg/ml protein, RAW 264.7 cells
Method: Murine macrophage-like RAW 264.7 cells (American Type Culture Collection, Rockville, Md.) were cultured in RPMI 1640 medium (Life Technologies, Grand Island N.Y.) supplemented with 10% fetal bovine serum (Gemini, Catabasas, Calif.), penicillin and streptomycin (Life Technologies) and were used at 90% confluence in serum-free Opti-MEM I medium (Life Technologies, Grand Island, N.Y.). […] Polymyxin B was not used in experiments of synthetic peptide studies.
TNF release was measured by a standard murine fibroblast L929 (ATCC, American Type Culture Collection, Rockville, Md.) cytotoxicity bioassay (Bianchi et al., Journal of Experimental Medicine 183:927-936, 1996) with the minimum detectable concentration of 30 pg/ml. Recombinant mouse TNF was obtained from R&D system Inc., (Minneapolis, Minn.). Murine fibroblast L929 cells (ATCC) were cultured in DMEM (Life Technologies, Grand Island, N.Y.) supplemented with 10% fetal bovine serum (Gemini, Catabasas, Calif.), penicillin (50 units/ml) and streptomycin (50 μg/ml) (Life Technologies) in a humidified incubator with 5% CO2.
The effect of the mutants on TNF release from Murine macrophage-like RAW 264.7 cells (ATCC) was carried out as follows. RAW 264.7 cells were cultured in RPMI 1640 medium (Life Technologies, Grand Island N.Y.) supplemented with 10% fetal bovine serum (Gemini, Catabasas, Calif.), penicillin and streptomycin (Life Technologies). Polymyxin (Sigma, St. Louis, Mo.) was added at 100 units/ml to suppress the activity of any contaminating LPS. Cells were incubated with 1 μg/ml of full length (wild-type) HMGB1 and each HMGB1 mutant protein in Opti-MEM I medium for 8 hours, and conditioned supernatants (containing TNF which had been released from the cells) were collected and TNF released from the cells was measured by a standard murine fibroblast L929 (ATCC) cytotoxicity bioassay (Bianchi et al., supra) with the minimum detectable concentration of 30 pg/ml. Recombinant mouse TNF was obtained from R & D Systems Inc., (Minneapolis, Minn.) and used as control in these experiments. Data in FIG. 1 are all presented as mean+SEM unless otherwise indicated. (N=6-10).
To further examine the effect of HMGB1 B box on cytokine production, varying amounts of HMGB1 B box were evaluated for the effects on TNF, IL-1 B, and IL-6 production in murine macrophage-like RAW 264.7 cells. Conditioned media were harvested and measured for TNF, IL-1β and IL-6 levels. TNF levels were measured as described herein, and IL-1β and IL-6 levels were measured using the mouse IL-1β and IL-6 enzyme-linked immunosorbent assay (ELISA) kits (R&D System Inc., Minneapolis, Minn.) and N>5 for all experiments.
The kinetics of B box-induced TNF release was also examined. TNF release and TNF mRNA expression was measured in RAW 264.7 cells induced by B box polypeptide or GST tag polypeptide only used as a control (vector) (10 μg/ml) for 0 to 48 hours. Supernatants were analyzed for TNF protein levels by an L929 cytotoxicity assay (N=3-5) as described herein. For mRNA measurement, cells were plated in 100 mm plate and treated in Opti-MEM I medium containing B box polypeptide or the vector alone for 0, 4, 8, or 24 hours, as indicated in FIG. 2D. The vector only sample was assayed at the 4 hour time point. Cells were scraped off the plate and total RNA was isolated by RNAzol B method in accordance with the manufacturer's instructions (Tel-Test “B”, Inc., Friendswood, Tex.). TNF (287 bp) was measured by RNase protection assay (Ambion, Austin, Tex.). Equal loading and the integrity of RNA was verified by ethidium bromide staining of the RNA sample on agarose-formaldehyde gel. […] TNF mRNA expression was maximal at 4 hours and decreased at 8 and 24 hours. […] A similar study was carried out measuring TNF protein released from RAW 264.7 cells 0, 4, 8, 24, 32 or 48 hours after administration of B box or vector only (GST tag), using the L929 cytotoxicity assay described herein. […] Data are representative of three separate experiments. […]

Molecule	TNF release (8 hours)	TNF protein expression compared to medium only (10 μg/ml, 0-48 hours)	time of maximum TNF protein release (10 μg/ml, 0-48 hours) [h]	TNF release, dose dependence (B box 0-10 μg/ml, 8 hours)
B1	potent activator of monocyte TNF release	stimulated TNF protein expression	≤ 8	increased with increased amounts of B box
B2	significantly stimulated TNF release			
B3	only weakly activated TNF release			
